Results from patent US20080221021A1 (published 2008).
Where no end group is shown, it is not given here.

Molecular target: T1, rat CRFBP C-terminally fused with a His6 sequence (rat, UniProt P24388 25-322)
T1 chain: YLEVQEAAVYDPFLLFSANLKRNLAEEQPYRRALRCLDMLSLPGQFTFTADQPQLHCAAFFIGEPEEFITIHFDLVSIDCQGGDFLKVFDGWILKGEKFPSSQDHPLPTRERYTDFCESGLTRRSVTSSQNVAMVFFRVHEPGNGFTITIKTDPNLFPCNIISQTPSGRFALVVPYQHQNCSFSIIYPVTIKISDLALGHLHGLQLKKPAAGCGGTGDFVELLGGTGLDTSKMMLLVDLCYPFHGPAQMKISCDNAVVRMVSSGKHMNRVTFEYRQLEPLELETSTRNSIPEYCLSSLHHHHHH
Experiment: competition binding

- IC50: 0.54 nM
Binder: SEEPPISLDLTFHLLREVLEMARAEQLAQQAHSNRKLMEII (not fully specified) [human/rat corticotropin-releasing factor]
